Results on 4 molecules are retold here after publication PMC11157272, “Fructose-1-kinase has pleiotropic roles in Escherichia coli” (The Journal of Biological Chemistry, 2023).

By stoichiometry N is commonly meant the number of molecules, sites or subunits per partner or assembly. The term Kd denotes the equilibrium constant for the complex coming apart.

For data set [1], the target named is fructose-1-kinase (FruK), untagged, expressed from pET-3a and purified (E. coli), P0AEW9. Kind of data set: atomic force microscopy; single-protein samples (FruK+DNA, Cra+DNA) in 50 mM Hepes, 100 mM KCl, 0.1 mM EDTA, 10 mM MgCl2, 0.3 mM DTT, pH 7.0, 60 min at room temperature, deposited on functionalised mica; molecular volumes converted to molecular weights.
The target of data set [2] is T1, catabolite repressor activator protein (WT Cra), untagged (E. coli), P0ACP1.
T1 chain: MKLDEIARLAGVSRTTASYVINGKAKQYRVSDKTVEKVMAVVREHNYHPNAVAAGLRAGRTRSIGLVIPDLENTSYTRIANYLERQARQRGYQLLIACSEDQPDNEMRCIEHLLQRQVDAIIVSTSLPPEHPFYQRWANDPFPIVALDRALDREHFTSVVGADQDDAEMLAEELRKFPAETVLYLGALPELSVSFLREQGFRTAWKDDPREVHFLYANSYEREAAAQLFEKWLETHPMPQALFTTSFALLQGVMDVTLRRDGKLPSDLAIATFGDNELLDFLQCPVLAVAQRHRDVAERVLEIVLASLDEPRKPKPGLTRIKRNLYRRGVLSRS
Briefly: BLI; equilibrium BLI (Octet RED96): biotinylated operator DNA on streptavidin tips, dipped into pre-equilibrated 2.5 nM Cra dimer plus varied FruK; 50 mM Hepes, 0.1 M KCl, 0.1 mM EDTA, 10 mM MgCl2, pH 7.0, 0.3 mM DTT, 0.1 mg/mL BSA; room temperature; global fit to Equation 2 with n assumed 1. Background: Biolayer interferometry detects binding as a change in optical thickness at a sensor tip.

Data set [3] concerns the target T2, His-tagged Cra (pET3a-Cra-C-His) for biolayer interferometry (E. coli), P0ACP1.
T2 chain: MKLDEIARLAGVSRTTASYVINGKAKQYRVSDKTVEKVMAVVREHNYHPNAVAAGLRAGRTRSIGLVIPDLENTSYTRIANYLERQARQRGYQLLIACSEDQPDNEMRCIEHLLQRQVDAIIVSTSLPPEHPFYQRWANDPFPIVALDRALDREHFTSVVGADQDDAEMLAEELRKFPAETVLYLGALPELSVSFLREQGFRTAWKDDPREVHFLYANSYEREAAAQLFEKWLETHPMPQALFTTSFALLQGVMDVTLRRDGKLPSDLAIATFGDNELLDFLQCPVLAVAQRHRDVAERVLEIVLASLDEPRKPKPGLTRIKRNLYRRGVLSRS
The data set is described as above.

In data set [4] the target is T1, catabolite repressor activator protein …. Kind of data set: atomic force microscopy; Cra, FruK and 331 bp fruBKA promoter DNA mixed (20 nM Cra/20 nM FruK and 20 nM Cra/10 nM FruK), 50 mM Hepes, 100 mM KCl, 0.1 mM EDTA, 10 mM MgCl2, 0.3 mM DTT, pH 7.0, 60 min at room temperature, deposited on functionalised mica; DNA-bound and DNA-free particles; volumes converted to molecular weights and clustered.

Data set [5] concerns the molecule itself. Kind of data set: atomic force microscopy; single-protein samples (FruK+DNA, Cra+DNA) in 50 mM Hepes, 100 mM KCl, 0.1 mM EDTA, 10 mM MgCl2, 0.3 mM DTT, pH 7.0, 60 min at room temperature, deposited on functionalised mica; molecular volumes converted to molecular weights.
A further data set has as its target Cra (FruR), WT (Escherichia coli (gene from strain …, UniProt P0ACP1 1-334)). Kind of data set: BLI; 100 nM Cra; BLI: 50 mM Hepes, 100 mM KCl, 0.1 mM EDTA, 10 mM MgCl2, 0.3 mM DTT, 0.1 mg/mL BSA, pH 7.0, about room temperature; concentrations as dimer. The settings on record: protein: recombinant; tags: none; chain copies: 2; label: biotin.

B1: fructose-1-kinase (FruK), untagged, expressed from pET-3a and purified, P0AEW9 1-312 (enzyme)
chain: MSRRVATITLNPAYDLVGFCPEIERGEVNLVKTTGLHAAGKGINVAKVLKDLGIDVTVGGFLGKDNQDGFQQLFSELGIANRFQVVQGRTRINVKLTEKDGEVTDFNFSGFEVTPADWERFVTDSLSWLGQFDMVCVSGSLPSGVSPEAFTDWMTRLRSQCPCIIFDSSREALVAGLKAAPWLVKPNRRELEIWAGRKLPEMKDVIEAAHALREQGIAHVVISLGAEGALWVNASGEWIAKPPSVDVVSTVGAGDSMVGGLIYGLLMRESSEHTLRLATAVAALAVSQSNVGITDRPQLAAMMARVDLQPFN
modifications: not checked
B1 displayed a stoichiometry N in data set [1] of 2. Further, the Kd is 2 nM in data set [2] and 1.6 nM in data set [3]. This molecule gave a stoichiometry N (FruK homodimer per Cra homodimer) in data set [4] of 1.

B2: His-tagged FruK (pET3a) for biolayer interferometry, P0AEW9 1-312 (enzyme)
chain: MSRRVATITLNPAYDLVGFCPEIERGEVNLVKTTGLHAAGKGINVAKVLKDLGIDVTVGGFLGKDNQDGFQQLFSELGIANRFQVVQGRTRINVKLTEKDGEVTDFNFSGFEVTPADWERFVTDSLSWLGQFDMVCVSGSLPSGVSPEAFTDWMTRLRSQCPCIIFDSSREALVAGLKAAPWLVKPNRRELEIWAGRKLPEMKDVIEAAHALREQGIAHVVISLGAEGALWVNASGEWIAKPPSVDVVSTVGAGDSMVGGLIYGLLMRESSEHTLRLATAVAALAVSQSNVGITDRPQLAAMMARVDLQPFN
modifications: not checked
B2: the dissociation constant Kd in data set [2] was found to be 2.1 nM.

B3: catabolite repressor activator protein (WT Cra), untagged (natural protein, E. coli, UniProt P0ACP1 1-334, looked up)
chain: MKLDEIARLAGVSRTTASYVINGKAKQYRVSDKTVEKVMAVVREHNYHPNAVAAGLRAGRTRSIGLVIPDLENTSYTRIANYLERQARQRGYQLLIACSEDQPDNEMRCIEHLLQRQVDAIIVSTSLPPEHPFYQRWANDPFPIVALDRALDREHFTSVVGADQDDAEMLAEELRKFPAETVLYLGALPELSVSFLREQGFRTAWKDDPREVHFLYANSYEREAAAQLFEKWLETHPMPQALFTTSFALLQGVMDVTLRRDGKLPSDLAIATFGDNELLDFLQCPVLAVAQRHRDVAERVLEIVLASLDEPRKPKPGLTRIKRNLYRRGVLSRS
notes: also called FruR; source: E. coli 3.300, constitutively over-expressed from pHG165a, in lysate; E. coli BLIM, constitutively expressed, purified (ammonium sulfate precipitation, phosphocellulose)
For the molecule B3, the “stoichiometry N” value in data set [5] was found to be 2.

B4: fruBproximal (dsDNA)
DNA 1: ATGCATGTTGTGTGGTTCTTGAAACGTTTCAGCTCACACAGGTCC
DNA 2: GGACCTGTGTGAGCTGAAACGTTTCAAGAACCACACAACATGCAT
modifications: 5' biotin
Take B4: the binding result with Cra (FruR), WT is listed as “binds”.
